Experiments:
[1] = tested on: CCCCC/C=C\C/C=C\CCCCCCCC(=O)OC; experiment: purified protein, by the assay type
[2] = tested on: CCCCC/C=C\C/C=C\CCCCCCCCO; experiment: purified protein, by the assay type
[3] = tested on: CCCCC/C=C\C/C=C\C/C=C\C/C=C\CCCC(=O)O; experiment: purified protein, by the assay type
[4] = tested on: CCCCC/C=C\C/C=C\CCCCCCCCOC(C)=O; experiment: purified protein, by the assay type
[5] = tested on: CCCCC/C=C\C/C=C\CCCCCCCC(=O)Cl; experiment: purified protein, by the assay type
[6] = target: M. salvinii lipoxygenase (Nakataea oryzae, UniProt P0CT92); settings: per substrate
Sequence of M. salvinii lipoxygenase (P0CT92 18-617): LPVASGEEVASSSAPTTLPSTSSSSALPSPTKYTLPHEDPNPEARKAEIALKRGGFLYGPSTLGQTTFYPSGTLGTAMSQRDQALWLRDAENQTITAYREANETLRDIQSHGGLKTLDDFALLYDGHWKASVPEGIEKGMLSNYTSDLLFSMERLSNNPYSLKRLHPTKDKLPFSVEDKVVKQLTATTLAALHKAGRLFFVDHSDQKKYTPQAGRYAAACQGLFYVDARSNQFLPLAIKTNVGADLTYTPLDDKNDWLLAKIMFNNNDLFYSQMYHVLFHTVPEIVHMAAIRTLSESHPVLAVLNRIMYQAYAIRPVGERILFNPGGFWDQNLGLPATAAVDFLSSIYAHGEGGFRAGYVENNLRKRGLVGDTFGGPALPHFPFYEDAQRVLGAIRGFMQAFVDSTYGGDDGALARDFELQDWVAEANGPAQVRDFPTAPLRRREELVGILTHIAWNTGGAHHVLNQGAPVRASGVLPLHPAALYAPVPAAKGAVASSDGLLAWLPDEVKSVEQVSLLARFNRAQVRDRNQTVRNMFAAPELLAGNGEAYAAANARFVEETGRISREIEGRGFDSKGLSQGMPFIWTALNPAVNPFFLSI

[7] = target: T1, soybean lipoxygenase (Glycine max, UniProt P08170); experiment: Substrate kinetic parameters with soybean lipoxygenase (comparison); format: biochemical
T1 sequence (P08170 1-839): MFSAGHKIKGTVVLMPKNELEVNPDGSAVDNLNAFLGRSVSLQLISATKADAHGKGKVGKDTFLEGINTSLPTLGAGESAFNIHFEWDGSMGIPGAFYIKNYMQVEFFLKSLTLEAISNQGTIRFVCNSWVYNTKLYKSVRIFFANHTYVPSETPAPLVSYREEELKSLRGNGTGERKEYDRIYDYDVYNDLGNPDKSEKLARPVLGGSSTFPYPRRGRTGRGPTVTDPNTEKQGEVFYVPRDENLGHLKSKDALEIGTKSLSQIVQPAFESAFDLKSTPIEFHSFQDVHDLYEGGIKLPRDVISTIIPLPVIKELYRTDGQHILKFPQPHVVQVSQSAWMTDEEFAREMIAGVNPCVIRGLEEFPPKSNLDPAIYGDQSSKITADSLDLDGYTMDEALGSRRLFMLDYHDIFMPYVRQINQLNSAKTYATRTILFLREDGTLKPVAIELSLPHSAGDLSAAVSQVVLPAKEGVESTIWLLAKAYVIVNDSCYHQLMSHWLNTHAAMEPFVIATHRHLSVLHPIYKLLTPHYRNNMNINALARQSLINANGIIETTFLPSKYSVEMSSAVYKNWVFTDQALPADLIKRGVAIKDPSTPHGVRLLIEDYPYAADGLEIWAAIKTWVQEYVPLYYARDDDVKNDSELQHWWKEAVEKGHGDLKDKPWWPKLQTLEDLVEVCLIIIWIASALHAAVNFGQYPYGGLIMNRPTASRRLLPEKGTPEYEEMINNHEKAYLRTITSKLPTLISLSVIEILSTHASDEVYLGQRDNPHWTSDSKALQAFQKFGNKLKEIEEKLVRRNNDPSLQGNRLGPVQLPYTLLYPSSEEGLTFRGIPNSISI
Experimental: Soybean lipoxygenase (type I-B) (cat.# L7315) and astaxanthin (cat.# A-9335) was supplied by Sigma. b-carotene (cat.# 031-05533) were supplied by Wako. For comparison, one substrate was also tested with soybean lipoxygenase.

[8] = Bleaching assay, β-carotene pigment solution; format: biochemical
Experimental: (§1) Bleaching effect by lipoxygenase was examined spectrophotometrically at 25° C. by following the absorbance at 470 nm. The pigment solution was prepared as follows. 150 ul of stock pigment solution (1 mg each pigment in 1 ml chloroform) was evaporated to be dry. Then 30 ml of the buffer (50 mM KH2PO4NaHPO4, pH 7.0) with 0.3% of Tween 20 was added slowly and the pigment was dissolved.
(§2) The bleaching effect of M. salvinii LOX was examined. Soybean L1 was included for comparison. β-carotene and astaxanthin were used as pigments.

[9] = Bleaching assay, astaxanthin pigment solution; format: biochemical
Experimental: as §1, §2

M. salvinii lipoxygenase (Nakataea oryzae)
Km [1]: 30 µM | Vmax [1]: 0.82 µmol/min/mg | Vmax/Km [1]: 26000 µL/min/mg | Km [2]: 8 µM | Vmax [2]: 1.4 µmol/min/mg | Vmax/Km [2]: 175000 µL/min/mg | Km [3]: 5.5 µM | Vmax [3]: 2.44 µmol/min/mg | Vmax/Km [3]: 446000 µL/min/mg | Km [4]: 9 µM | Vmax [4]: 0.77 µmol/min/mg | Vmax/Km [4]: 85000 µL/min/mg | Km [5]: 12 µM | Vmax [5]: 0.97 µmol/min/mg | Vmax/Km [5]: 80000 µL/min/mg

CC/C=C\C/C=C\C/C=C\CCCCCCCC(=O)O [Linolenic acid]
Km [6]: 0.4 µM

CCCCC/C=C/C/C=C/CCCCCCCC(=O)O [Linoelaidic acid]
KM [6]: No activity | Vmax [6]: No activity | Vmax/KM [6]: No activity

CCCCC/C=C\C/C=C\CCCCCCCC(=O)O [Na linoleate]
Km [6]: 0.41 µM | Vmax [6]: 2.07 µmol/min/mg

CCCCC/C=C\C/C=C\CCCCCCCC(=O)O [Linoleic acid]
Km [7]: 230 µM | Vmax [7]: 12.3 µmol/min/mg | Km [6]: 1 µM | Vmax [6]: 2.63 µmol/min/mg

B1: Soybean L1: Soybean lipoxygenase (type I-B) (cat.# L7315) supplied by Sigma, included for comparison (protein, UniProt P08170 1-839, looked up)
Seed linoleate …: MFSAGHKIKGTVVLMPKNELEVNPDGSAVDNLNAFLGRSVSLQLISATKADAHGKGKVGKDTFLEGINTSLPTLGAGESAFNIHFEWDGSMGIPGAFYIKNYMQVEFFLKSLTLEAISNQGTIRFVCNSWVYNTKLYKSVRIFFANHTYVPSETPAPLVSYREEELKSLRGNGTGERKEYDRIYDYDVYNDLGNPDKSEKLARPVLGGSSTFPYPRRGRTGRGPTVTDPNTEKQGEVFYVPRDENLGHLKSKDALEIGTKSLSQIVQPAFESAFDLKSTPIEFHSFQDVHDLYEGGIKLPRDVISTIIPLPVIKELYRTDGQHILKFPQPHVVQVSQSAWMTDEEFAREMIAGVNPCVIRGLEEFPPKSNLDPAIYGDQSSKITADSLDLDGYTMDEALGSRRLFMLDYHDIFMPYVRQINQLNSAKTYATRTILFLREDGTLKPVAIELSLPHSAGDLSAAVSQVVLPAKEGVESTIWLLAKAYVIVNDSCYHQLMSHWLNTHAAMEPFVIATHRHLSVLHPIYKLLTPHYRNNMNINALARQSLINANGIIETTFLPSKYSVEMSSAVYKNWVFTDQALPADLIKRGVAIKDPSTPHGVRLLIEDYPYAADGLEIWAAIKTWVQEYVPLYYARDDDVKNDSELQHWWKEAVEKGHGDLKDKPWWPKLQTLEDLVEVCLIIIWIASALHAAVNFGQYPYGGLIMNRPTASRRLLPEKGTPEYEEMINNHEKAYLRTITSKLPTLISLSVIEILSTHASDEVYLGQRDNPHWTSDSKALQAFQKFGNKLKEIEEKLVRRNNDPSLQGNRLGPVQLPYTLLYPSSEEGLTFRGIPNSISI
ΔA470/min ([8]; β-carotene): 0.00005 | bleaching effect (in words) ([8]; β-carotene and astaxanthin pigment solutions): little effect on bleaching | LOX activity ([8]; β-carotene experiment): 1.962 | absorbance at 470 nm ([8]; β-carotene, time 0 min, 25° C., pH 7.0): 0.3575 | absorbance at 470 nm ([8]; β-carotene, time 0.4 min): 0.3616 | absorbance at 470 nm ([8]; β-carotene, time 0.8 min): 0.3601 | absorbance at 470 nm ([8]; β-carotene, time 1.2 min): 0.362 | absorbance at 470 nm ([8]; β-carotene, time 1.4 min): 0.3602 | absorbance at 470 nm ([8]; β-carotene, time 1.8 min): 0.3602 | absorbance at 470 nm ([8]; β-carotene, time 2.2 min): 0.3595 | absorbance at 470 nm ([8]; β-carotene, time 2.6 min): 0.3595 | absorbance at 470 nm ([8]; β-carotene, time 3 min): 0.3594 | ΔA470/min ([9]; Astaxanthin): 0.0021 | LOX activity ([9]; Astaxanthin experiment): 2.018 | absorbance at 470 nm ([9]; Astaxanthin, time 0 min, 25° C., pH 7.0): 0.5026 | absorbance at 470 nm ([9]; Astaxanthin, time 0.4 min): 0.5029 | absorbance at 470 nm ([9]; Astaxanthin, time 0.8 min): 0.505 | absorbance at 470 nm ([9]; Astaxanthin, time 1 min): 0.5025 | absorbance at 470 nm ([9]; Astaxanthin, time 1.4 min): 0.5013 | absorbance at 470 nm ([9]; Astaxanthin, time 1.8 min): 0.4993 | absorbance at 470 nm ([9]; Astaxanthin, time 2.2 min): 0.4985 | absorbance at 470 nm ([9]; Astaxanthin, time 2.6 min): 0.4986 | absorbance at 470 nm ([9]; Astaxanthin, time 3 min): 0.498

From patent publication US7264954B2, “Lipoxygenase” (Novozymes A/S, priority 2001, dated 2007)
